Target: Pseudomonas aeruginosa type I-F CRISPR-Cas surveillance complex (Csy complex) (P. aeruginosa) (UniProt Q02MM1)
Assay: SEC; competition: purified Csy complex pre-incubated 1 h with a 10-fold molar excess of FLAG-tagged AcrF1 (mutant or wild type), then an equal amount of HA-tagged wild-type AcrF1 added for 1 h; size exclusion chromatography; peak fractions by SDS-PAGE, silver staining and Western blot

percent exchanged with HA-tagged wild-type AcrF1 at 1 h | Substance
50% | FLAG-tagged AcrF1 Y20A (natural protein)
50% | FLAG-tagged AcrF1 E31A (natural protein)

Reference: paper PMC5062604
